According to patent US20110243928A1 (published 2011):
Blank lines part the entries; values can stand above or below the binder they belong to. *: point of attachment. Biotin = O=C1N[C@H]2[C@H](CS[C@H]2CCCCC(=O)*)N1

Tests used:
[1] = target: T1, E. coli-expressed recombinant human IL-13 (human, UniProt P35225 35-146); test: BIAcore
T1 construct: Untagged E. coli-expressed human IL-13; also called hIL-13; human IL13 (CA)

[2] = target: T2, E. coli-expressed recombinant det-1 tagged human IL-13 (human, UniProt P35225 35-146); test: BIAcore
T2 construct: also called Det-1 tagged human IL-13 (made in-house); not shown: det-1 tag
T2 sequence (P35225 other isoform, or with tags, fused parts or gaps): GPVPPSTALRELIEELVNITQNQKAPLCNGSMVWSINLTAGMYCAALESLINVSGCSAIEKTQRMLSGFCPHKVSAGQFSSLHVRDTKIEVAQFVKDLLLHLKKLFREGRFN

[3] = target: T3, E. coli-expressed recombinant cynomolgus IL-13 (cynomolgus, UniProt Q5I6E4 21-132 (Macaca thibetana entry)); test: BIAcore
T3 construct: also called cyno IL13 (CA); cIL-13
T3 chain: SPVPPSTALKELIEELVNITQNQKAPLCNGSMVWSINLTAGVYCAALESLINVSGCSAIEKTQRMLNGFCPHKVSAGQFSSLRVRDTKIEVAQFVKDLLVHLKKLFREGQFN

[4] = target: E. coli-expressed recombinant human GM-CSF (human, UniProt P04141 18-144); test: sandwich ELISA
Chain of E. coli-expressed recombinant human GM-CSF (P04141 18-144 limits assumed): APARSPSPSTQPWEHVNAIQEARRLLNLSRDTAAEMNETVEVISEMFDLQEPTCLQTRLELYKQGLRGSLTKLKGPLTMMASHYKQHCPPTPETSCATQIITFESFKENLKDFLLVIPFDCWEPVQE

16 mer peptide 30 = target: T4, 16 mer peptide 30 (N-terminal biotin; C-terminal amide); test: 16 mer peptide ELISA
T4 peptide: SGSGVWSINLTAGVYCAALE
Description: (§1) Biotinylated 16 mer peptides offset by 4 were synthesised to map the location of the B cell epitope recognised by mAb 6A1 on both human and cynomolgus IL-13. An ELISA method was used to detect binding of immobilised biotinylated peptide to the parental mAb 6A1.

16 mer peptide 44 = target: T5, 16 mer peptide 44 (cynomolgus, N-terminal biotin; C-terminal free acid); test: 16 mer peptide ELISA
T5 construct: also called 44 (Control)
T5 peptide: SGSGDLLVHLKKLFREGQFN
Description: as §1

fine mapping peptide 421 = target: T6, fine mapping peptide 421 (SMILES …); test: fine mapping peptide ELISA
T6 peptide: Biotin-SGSGKLFREG-NH2
Procedure: (§2) A binding epitope for mAb 6A1 was determined using a peptide set based around […] for binding to human IL-13 and […] for binding to cynomolgus IL-13. Peptides were ordered with 1 amino acid sequentially removed from either the N or C-terminus of these parental peptide sequences (i.e. […] or […]), in order to define the precise linear binding epitope for mAb 6A1.
(§3) An ELISA method was used to detect binding of immobilised biotinylated peptide to the parental mAb 6A1.

fine mapping peptide 423 = target: T7, fine mapping peptide 423 (SMILES N=C(N)NCCC[C@H](NC(=O)[C@H](Cc1ccccc1)NC(=O)CNC(=O)[C@H](CO)NC(=O)CNC(=O)[C@H](CO)NC(=O)CCCC[C@@H]1SC[C@@H]2NC(=O)N[C@@H]21)C(=O)N[C@@H](CCC(=O)O)C(=O)NCC(N)=O); test: fine mapping peptide ELISA
T7 peptide: Biotin-SGSGFREG-NH2
Procedure: as §2, §3

[5] = target: T8, 16mer biotinylated human IL-13 peptide number 24 (human, N-terminal biotin; C-terminal amide); test: BIAcore analysis 3, antibody over biotinylated peptide on SA chip
T8 construct: format Biotin-SGSG-PEPTIDE-amide; also called Peptide 24
T8 peptide: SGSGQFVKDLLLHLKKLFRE
Procedure: (§4) Completed for the 16mer biotinylated human IL-13 peptide number 24 (identified as the linear binding epitope for parental mAb 6A1, see section 6.7). Note that the absolute KD values obtained for binding to peptide ligands are often quite different to those seen for binding to whole protein targets.
(§5) The kinetics analysis was performed on a Biacore 3000 machine using direct binding of antibody to immobilised IL-13 peptide. Briefly, IL-13 biotinylated peptide was captured using a Biacore SA (strepavidin) Biosensor chip. The antibodies were then passed over the sensor surface at various concentrations. The subsequent binding curves were analysed with Biacore analysis software BIAeval 4.1 to determine kinetics. The experiment was carried out using Biacore HBS-EP buffer

[6] = target: T2, E. coli-expressed recombinant det-1 …; test: competition ELISA: inhibition of det-1 tagged human IL-13 binding to human IL-13Rα1-Fc
[7] = target: T2, E. coli-expressed recombinant det-1 …; test: competition ELISA: inhibition of det-1 tagged human IL-13 binding to human IL-13Rα2-Fc
[8] = target: T2, E. coli-expressed recombinant det-1 …; test: competition ELISA: inhibition of det-1 tagged human IL-13 binding to human IL-13Rα1-Fc; remark: listed apart in the source
[9] = target: T1, E. coli-expressed recombinant human …; test: BIAcore analysis 2
[10] = target: T8, 16mer biotinylated human IL-13 peptide …; test: BIAcore analysis 3, antibody over immobilised biotinylated peptide 24
Procedure: as §4, §5

[11] = target: T1, E. coli-expressed recombinant human …; test: BIAcore analysis 4, antibody captured on Protein A, IL-13 in solution
Procedure: Completed for both human and cynomolgus IL-13 (E. coli-expressed protein). The quoted KD values are the average from 5 different IL-13 concentration curves (done in triplicate).
The kinetics analysis was performed on a Biacore 3000 machine, using an antibody capture method. Briefly, for the chimeric 6A1 and humanised antibody constructs Protein A capture was used, whilst for the parental murine 6A1 antibody, capture was by a anti-mouse Fc antibody supplied by Biacore. Briefly, the method is as follows, the capture ligand was immobilised to a CM5 Biosensor chip by primary amine coupling in accordance with Biacore standard protocols and using the reagents supplied in Biacores' primary amine coupling kit. The method involves activation CM5 sensor surface by passing a solution of 50 mM N-hydroxy-succinimide (NHS) and 200 mM N-ethyl-N′-dimethylaminopropyl […] (EDC) over the surface. Then, the capture ligand (dissolved in acetate buffer pH5 or pH4.5) was coupled to the activated sensor surface after which any still activated esters were blocked by an injection of 1M ethanolamine hydrochloride, pH8.5.
The candidate antibody was then passed over the Protein A or anti-mouse Fc antibody surface, depending on whether it was human or mouse in origin and captured. Once a stable binding signal was seen IL13 was passed over the captured antibody surface at various defined concentrations. The subsequent binding curves were analysed with Biacore analysis software BIAeval v4.1 to determine kinetics. The experiments were carried out using Biacore HBS-EP buffer.

T1 sequence (P35225 other isoform, or with tags, fused parts or gaps): as the sequence (P35225 other isoform, or with tags, fused parts or gaps) above

Kd [1]: 0.27 nM | koff [1]: 0.000184 s⁻¹ | kon [1]: 682000 M⁻¹ s⁻¹ | Kd [2]: 0.032 nM | koff [2]: 7.2e-05 s⁻¹ | kon [2]: 2.25e+06 M⁻¹ s⁻¹ | Kd [3]: 0.0612 nM | koff [3]: 5.6e-05 s⁻¹ | kon [3]: 914000 M⁻¹ s⁻¹ | binding result [4]: no binding | absorbance at 490 nm (16 mer peptide 30): 0.062 A490 | absorbance at 490 nm (16 mer peptide 44): 2.23 A490 | absorbance at 490 nm (fine mapping peptide 421): 0.059 A490 | absorbance at 490 nm (fine mapping peptide 423): 0.052 A490 | Kd [5]: 3.11 nM | koff [5]: 0.000915 s⁻¹ | kon [5]: 295000 M⁻¹ s⁻¹ | IC50 [6]: 0.165 µg/mL | IC50 [7]: 0.056 µg/mL | IC50 [8]: 0.039 µg/mL
B1: monoclonal antibody 6A1 (antibody, IgG1, V domains shown)
VH: EIQLQQSVAELVRPGASVRLSCTASGFYIKDTYMHWVIQRPEQGLEWIGTIDPANGNTKYVPKFQGKATITADTSSNTAYLRLSSLTSEDTAIYYCARSIYDDYHYDDYYAMDYWGQGTSVTVSS
VL: DVLMTQTPLSLPVSLGDQASISCRSSQNIVHINGNTYLEWYLQKPGQSPKLLIYKISDRFSGVPDRFSGSGSGTDFTLKISRVEAEDLGVYYCFQGSHVPWTFGGGTKLEIK
notes: also called 6A1 parental mAb; parental mouse mAb 6A1

Kd [9]: 0.149 nM | koff [9]: 6.95e-05 s⁻¹ | kon [9]: 466000 M⁻¹ s⁻¹ | fold reduction in affinity against chimaeric 6A1 [10]: ~3 fold | Kd [5]: 9.03 nM | koff [5]: 0.0017 s⁻¹ | kon [5]: 195000 M⁻¹ s⁻¹ | Kd [11]: 0.17 nM | koff [11]: 0.00014 s⁻¹ | kon [11]: 824000 M⁻¹ s⁻¹ | IC50 [8]: 0.044 µg/mL
B2: L1+A1 (antibody, human IgG1, kappa, V domains shown)
VH: QVQLVQSGAEVKKPGSSVKVSCKASGFYIKDTYMHWVRQAPGQGLEWMGTIDPANGNTKYVPKFQGRVTITADESTSTAYMELSSLRSEDTAVYYCARSIYDDYHYDDYYAMDYWGQGTLVTVSS
VL: DIVMTQSPLSLPVTPGEPASISCRSSQNIVHINGNTYLEWYLQKPGQSPRLLIYKISDRFSGVPDRFSGSGSGTDFTLKISRVEADDVGIYYCFQGSHVPWTFGQGTKLEIKR
notes: Humanised 6A1, VH construct A1 and VL construct L1, human gamma1 wild type / kappa constant regions; also called A1L1; humanised anti-IL-13 mAb L1+A1
